Laboratory results published in the RNAGym collection of RNA variant scans (doi:10.7554/elife.90254).

B1: LINE1-full (parent)
chain: UACGUAGGUGGUUUUCCCCUGAUAGUGCUAAGGGGGCCUGGAAGUUUGGACUGGGCAGAGCUCAACACAGCGUGGCAAAGUGGCUGUGGCUAGACUGCCUCUCUGGAUUCCUCGUCACUCAGCAGGGCAUCUCUGAGAGAAAUGCC

Variants of: B1
Assay: self-cleavage, relative activity (ratio to wild type); higher = more cleavage; in vitro, sequencing; the parent is a self-cleaving ribozyme

Which self-cleavage does the source give for UACGUAGGUGGUUUUCCCCUGAUAGUGCUAAGGGGGCCUGGAAGUUUGGACUGGGCAGAGCUCAACACAGCGUGGCAAAGUGGCUGUGGCAAGACAGCCUCUCUGGAUUCCUCGUCACUCAGCAGGGCAUCUCUGAGAGAAAUGCC [U91A U96A] here?
Its self-cleavage is 0.04.

For UACGUAGGUGGUUUUCCCCUGAUAGUGCUAAGGGGGCCUGGAAGUUUGGACUGGGCAGAGCUCAACACAGCGUGGCAAAGUGGCUGUGGCUAGACUGCCCCUCUGGAUUCCUCGUCACUCAGCAGGGCAUGUCUGAGAGAAAUGCC [U100C C131G], which self-cleavage is on record?
The self-cleavage was 2.35.

For UACGUAGGUGGUUUUCCCCUGAUAGUGCUAAGGGGGCCUGGAAGUUUGGACCGGGCAGAGCUCAACACAGCGUGGCAAAGUGGCUGUGGCUAGACUGCCUCUCUGGAUUCCUUGUCACUCAGCAGGGCAUCUCUGAGAGAAAUGCC [U52C C113U], which self-cleavage is on record?
Its self-cleavage is 0.99.

Which self-cleavage does the source give for UACGUAGGUGGUUUUCCCCUGAUAGUGCUAAGGGGGCCUGGAAGUUUGGACUGGGCAGAGCUCAACACAGCGUGGCAAAGUGGCUGUGGCUAGGCUGCCUCUCUGGAUUUCUCGUCACUCAGCAGGGCAUCUCUGAGAGAAAUGCC [A94G C110U] here?
Its self-cleavage is 0.32.

Which self-cleavage does the source give for UACGUAGGUGGUUUUCCCCUGAUAGUGCUAAGGGGGCUUGGAAGUUCGGACUGGGCAGAGCUCAACACAGCGUGGCAAAGUGGCUGUGGCUAGACUGCCUCUCUGGAUUCCUCGUCACUCAGCAGGGCAUCUCUGAGAGAAAUGCC [C38U U47C] here?
The self-cleavage was 0.93.

With UACGUAGGUGGUUUUCCCCUGAUAGUGCUAAGGGGGCCUGGAAGUUUGGACUGGGCAGAGCUCAACACAGCGUGUCAAAGUGGCUGUGGUUAGACUGCCUCUCUGGAUUCCUCGUCACUCAGCAGGGCAUCUCUGAGAGAAAUGCC [G75U C90U] as the variant, how does the self-cleavage read?
The self-cleavage was 0.03.

For CACGUAGGUGGUUUUCCCCUGAUAGUGCUAAGGAGGCCUGGAAGUUUGGACUGGGCAGAGCUCAACACAGCGUGGCAAAGUGGCUGUGGCUAGACUGCCUCUCUGGAUUCCUCGUCACUCAGCAGGGCAUCUCUGAGAGAAAUGCC [U1C G34A], which self-cleavage is on record?
The self-cleavage was 0.75.

For UACGUAGGUGGUAUUCCCCUGAUAGUGCUAAGGGGGCCCGGAAGUUUGGACUGGGCAGAGCUCAACACAGCGUGGCAAAGUGGCUGUGGCUAGACUGCCUCUCUGGAUUCCUCGUCACUCAGCAGGGCAUCUCUGAGAGAAAUGCC [U13A U39C], which self-cleavage is on record?
Its self-cleavage is 0.61.

With UACGUAGGUGGUUUUCCCCUGAUGGUGCUAAGGGGGCCUGGAAGUUUGGACUGGGCAGAGCUCAACACAGCGUGGCAAAGUGGCUGUGGCUAGUCUGCCUCUCUGGAUUCCUCGUCACUCAGCAGGGCAUCUCUGAGAGAAAUGCC [A24G A94U] as the variant, how does the self-cleavage read?
The self-cleavage was 0.49.

With UACGUAGGUGGUUUUCCCCUGAUAGUGCUAAGGGGGCCUGGAAGCUUGGACUGGGCAGAGCUCAACACAGCGUGGCAACGUGGCUGUGGCUAGACUGCCUCUCUGGAUUCCUCGUCACUCAGCAGGGCAUCUCUGAGAGAAAUGCC [U45C A79C] as the variant, how does the self-cleavage read?
The self-cleavage was 1.23.

Which self-cleavage does the source give for UACGUAGGUGGUUUUCCCCUGAUAGUGAUAAGGGGGCCUGGAAGUUUGGACUGGGCAGAGCUCAACACAGCGUGGCAAAGUGGCUGUGGCUAGACCGCCUCUCUGGAUUCCUCGUCACUCAGCAGGGCAUCUCUGAGAGAAAUGCC [C28A U96C] here?
Its self-cleavage is 0.17.

Which self-cleavage does the source give for UACGUAGGUGGUUUUCCCCUGAUAGUGCUAAGGGGGCCUGGAAGUUUGGACUGGGCAGAGCCCAACACAGCGUGGCAAAGUGGCUGUGGCUAGACUGCCUCUCUGGAUUCCUCGUCACUCAGCAGGGCAUCUCUGCGAGAAAUGCC [U62C A136C] here?
Its self-cleavage is 0.1.

With UACGUAGGUGGUUUUCCCCUGAUAGUGCUAAGGGGGCCUGGAAGUUUGGACUGGGCAGAGCUCAACACAGCGUGGCAAAGUGGCUGUGGCUAGACUACCUCUCUGGAUUCCUCGCCACUCAGCAGGGCAUCUCUGAGAGAAAUGCC [G97A U115C] as the variant, how does the self-cleavage read?
Its self-cleavage is 0.3.

Which self-cleavage does the source give for UACGUAGGUGGUUUUCCCCUGAUAGUGCUAAGGGGGCCUGGAAGCUUGGACUGGGCGGAGCUCAACACAGCGUGGCAAAGUGGCUGUGGCUAGACUGCCUCUCUGGAUUCCUCGUCACUCAGCAGGGCAUCUCUGAGAGAAAUGCC [U45C A57G] here?
The self-cleavage was 0.7.

With UACGUAGGUGGUUUUCCCCUGAUAGUGCUAAGGGGGCCUGGAAGUUUGGACUGGGCAGAGCCCAACACAGCGUGGCAAAGUGGCUGUGGCUAGACUGCCUCUCUGGAUUCCUCGUCACUCAGCAGGGCAUCUCUGAGAGUAAUGCC [U62C A140U] as the variant, how does the self-cleavage read?
The self-cleavage was 0.04.

With UACGUAGGUGGUUCUCCCCUGAUAGUGCUAAGGGGGCCUGGAAGUUUGGACUGGGCAGAGCUCAACACAGCGUGGCAAAGUGGCUGUGGCUAGACUGCCUCUCUGGAUUCCUCGUCACUCAGCAGGGCAUCUCUGAGAGAAAUACC [U14C G144A] as the variant, how does the self-cleavage read?
Its self-cleavage is 1.13.

Which self-cleavage does the source give for UACGUAGGUGGUUUUCCCCUGAUAGUGCUAAGGGGGCCUGGAAGUUUGGACUGGGCAGAGCUCAACACAGCGUGGCAAAGUGGCUGUGGCUAGACUGCCUCUCUGGAAUCCUCGACACUCAGCAGGGCAUCUCUGAGAGAAAUGCC [U108A U115A] here?
The self-cleavage was 0.6.

For UACGUAGGUGGUUUUCCCCUGAUAGUGCUAAGGGGGCCUGGAAGUUUGGACUGGGCAGAGCUCAACACAGCGUGGCAAAGUGGCUGUGGCUAGACUGCCUCUCUGGAUUCCUCAUCACUCAGCAGGGCAUCUCUGAGAGCAAUGCC [G114A A140C], which self-cleavage is on record?
Its self-cleavage is 1.27.

With UACGUAGGUGGUUUUCCCCUGAUAGUGCUAAGUGGGCCUGGAAGUUUGGACUGGGCAGAGCUCAACACAGCGUGGCAAAGUGGCUGUGGCUAGACUGCCUCUCUGGAUUCCUCGUCGCUCAGCAGGGCAUCUCUGAGAGAAAUGCC [G33U A117G] as the variant, how does the self-cleavage read?
The self-cleavage was 1.39.

Which self-cleavage does the source give for UACGUAGGUGGUUUUCCCCUGAUAGUGCUAAGGGGGCCUGGAAGUUUGGACUGGGCAGAGCUCAACACAGCGUGGCAAAGUGGCUGUGGCUAAACUGCCUCUCUGGAUUCCUCGUCACUCAGCAGGGCAUCUCUGAGAGAAAUGCC [G93A] here?
The self-cleavage was 0.04.
